This is an account of results in patent US20210246166A1 (Bayer, published 2021).

Numbered stars: 1 amine (or outer) side, 2 acyl side, 3 side chain; on linkers, the order of the positions; unused ones are H or OH. Bridge positions count the residues as written; N and C are the ends. Square brackets hold non-standard residues; d marks the D form. Ends that are not written are not given here. * marks the point of attachment. X15 = (3S)‑2‑azaspiro(4.4)nonane‑3‑carboxylic acid, O=C([C@@H]1CC2(CCCC2)CN1[*:1])[*:2]; X11 = (S)‑Piperidine‑3‑carboxylic acid, O=C([C@H]1CCCN([*:1])C1)[*:2]; X14 = (2,4-dioxoimidazolidin-1-yl)acetic acid, O=C1CN(CC(=O)*)C(=O)N1; (R)‑Pyrrolidine‑3‑acetic acid = O=C(C[C@H]1CCN([*:1])C1)[*:2]; Nip(3R) = O=C([C@@H]1CCCN([*:1])C1)[*:2]; Oic = O=C(O)[C@@H]1C[C@@H]2CCCC[C@@H]2N1; βPro(3R) = O=C([C@@H]1CCN([*:1])C1)[*:2]; tBuAla = CC(C)(C)C[C@H](N)C(=O)O; Pen = CC(C)(S)[C@H](N)C(=O)O; PEG3 = NCCOCCOCCOCCC(=O)O; Orn = NCCC[C@H](N)C(=O)O; Ahx = NCCCCCC(=O)O; Sar = CNCC(=O)O

The target of assay [1] is T1, Recombinant human MASP1 enzyme (fragment corresponding to amino acids 297-699, C-terminal His Tag) (human, UniProt P48740 297-699).
T1 sequence: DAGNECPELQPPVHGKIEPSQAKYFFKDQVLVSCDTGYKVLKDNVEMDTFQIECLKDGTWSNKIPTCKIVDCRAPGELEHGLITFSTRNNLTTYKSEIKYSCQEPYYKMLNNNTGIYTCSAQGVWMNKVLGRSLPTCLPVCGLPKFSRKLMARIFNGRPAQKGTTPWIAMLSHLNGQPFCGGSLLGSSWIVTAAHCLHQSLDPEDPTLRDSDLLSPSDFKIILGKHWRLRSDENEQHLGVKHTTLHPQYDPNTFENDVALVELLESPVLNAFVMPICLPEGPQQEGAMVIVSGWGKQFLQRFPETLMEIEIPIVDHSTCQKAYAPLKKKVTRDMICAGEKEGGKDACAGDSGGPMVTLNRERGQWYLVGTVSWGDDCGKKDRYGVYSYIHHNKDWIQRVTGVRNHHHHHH
Briefly: cell-based or functional assay.

Assay [2] has as its target Recombinant human MASP2 enzyme (fragment corresponding to amino acids 297-686, C-terminal His Tag) (human, UniProt O00187 297-686). Briefly: cell-based or functional assay.

Chain of Recombinant human MASP2 enzyme (fragment corresponding to amino acids 297-686, C-terminal His Tag) (O00187 other isoform, or with tags, fused parts or gaps limits assumed): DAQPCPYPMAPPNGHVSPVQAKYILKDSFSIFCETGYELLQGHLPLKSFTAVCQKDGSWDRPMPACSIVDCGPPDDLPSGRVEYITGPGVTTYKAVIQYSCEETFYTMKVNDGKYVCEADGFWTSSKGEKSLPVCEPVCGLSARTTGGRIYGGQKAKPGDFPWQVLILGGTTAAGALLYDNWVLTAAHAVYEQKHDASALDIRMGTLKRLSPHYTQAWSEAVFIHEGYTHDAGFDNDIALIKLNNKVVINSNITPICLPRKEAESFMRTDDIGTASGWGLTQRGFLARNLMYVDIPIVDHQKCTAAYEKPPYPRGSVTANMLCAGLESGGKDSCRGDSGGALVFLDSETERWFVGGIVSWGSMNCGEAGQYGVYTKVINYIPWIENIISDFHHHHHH

B1: ((N-Me)G)-IC+SRSLP-(Oic)-I-(Pen)+IPD-(Ahx)-OH (peptide)
peptide: [Sar]ICSRSLP[Oic]I[Pen]IPD[Ahx]-OH
modifications: disulfide 3-11; N-terminus assumed
SMILES: CC[C@H](C)[C@H](NC(=O)CNC)C(=O)N[C@H]1CSSC(C)(C)[C@@H](C(=O)N[C@H](C(=O)N2CCC[C@H]2C(=O)N[C@@H](CC(=O)O)C(=O)NCCCCCC(=O)O)[C@@H](C)CC)NC(=O)[C@H]([C@@H](C)CC)NC(=O)[C@@H]2C[C@@H]3CCCC[C@@H]3N2C(=O)[C@@H]2CCCN2C(=O)[C@H](CC(C)C)NC(=O)[C@H](CO)NC(=O)[C@H](CCCNC(=N)N)NC(=O)[C@H](CO)NC1=O
Turning to B1, the “human MASP1 IC50” value in assay [1] is 0.41 nM. Besides, the “human MASP2 IC50” value in assay [2] came out at 120 nM.

B2: ((N-Me)G)-IC+SRSLP-(Oic)-I-(Pen)+IPGD-OH (peptide)
peptide: [Sar]ICSRSLP[Oic]I[Pen]IPGD-OH
modifications: disulfide 3-11; N-terminus assumed
SMILES: CC[C@H](C)[C@H](NC(=O)CNC)C(=O)N[C@H]1CSSC(C)(C)[C@@H](C(=O)N[C@H](C(=O)N2CCC[C@H]2C(=O)NCC(=O)N[C@@H](CC(=O)O)C(=O)O)[C@@H](C)CC)NC(=O)[C@H]([C@@H](C)CC)NC(=O)[C@@H]2C[C@@H]3CCCC[C@@H]3N2C(=O)[C@@H]2CCCN2C(=O)[C@H](CC(C)C)NC(=O)[C@H](CO)NC(=O)[C@H](CCCNC(=N)N)NC(=O)[C@H](CO)NC1=O
For the molecule B2, the “human MASP1 IC50” value in assay [1] is 1 nM. Besides, the “human MASP2 IC50” value in assay [2] was 45 nM.

B3: ((N-Me)G)-IC+SRSLP-(Oic)-I-(Pen)+IP-(*Dap)-OH (peptide)
peptide: [Sar]ICSRSLP[Oic]I[Pen]IPX-OH
modifications: disulfide 3-11; not fully specified (residue 14); printed as ((N-Me)G)-IC+SRSLP-(Oic)-I-(Pen)+IP-(*Dap)-OH; also: C-terminal Dap joined through its 3-amino group
In the case of B3, in assay [1], the “human MASP1 IC50” value was determined as 6.6 nM. Besides, in assay [2], the “human MASP2 IC50” value is 55 nM.

B4: (Orn)-IC+SRSLP-(Oic)-I-(Pen)+IPD-OH (peptide)
peptide: [Orn]ICSRSLP[Oic]I[Pen]IPD-OH
modifications: disulfide 3-11; N-terminus assumed
SMILES: CC[C@H](C)[C@H](NC(=O)[C@@H](N)CCCN)C(=O)N[C@H]1CSSC(C)(C)[C@@H](C(=O)N[C@H](C(=O)N2CCC[C@H]2C(=O)N[C@@H](CC(=O)O)C(=O)O)[C@@H](C)CC)NC(=O)[C@H]([C@@H](C)CC)NC(=O)[C@@H]2C[C@@H]3CCCC[C@@H]3N2C(=O)[C@@H]2CCCN2C(=O)[C@H](CC(C)C)NC(=O)[C@H](CO)NC(=O)[C@H](CCCNC(=N)N)NC(=O)[C@H](CO)NC1=O
Turning to B4, the “human MASP1 IC50” value in assay [1] was 1.9 nM. Also, the “human MASP2 IC50” value in assay [2] came to 110 nM.

B5: ((N-Me)G)-IC+SRSLP-(Oic)-I-(Pen)+IPDD-OH (peptide)
peptide: [Sar]ICSRSLP[Oic]I[Pen]IPDD-OH
modifications: disulfide 3-11; N-terminus assumed
SMILES: CC[C@H](C)[C@H](NC(=O)CNC)C(=O)N[C@H]1CSSC(C)(C)[C@@H](C(=O)N[C@H](C(=O)N2CCC[C@H]2C(=O)N[C@@H](CC(=O)O)C(=O)N[C@@H](CC(=O)O)C(=O)O)[C@@H](C)CC)NC(=O)[C@H]([C@@H](C)CC)NC(=O)[C@@H]2C[C@@H]3CCCC[C@@H]3N2C(=O)[C@@H]2CCCN2C(=O)[C@H](CC(C)C)NC(=O)[C@H](CO)NC(=O)[C@H](CCCNC(=N)N)NC(=O)[C@H](CO)NC1=O
In the case of B5, in assay [1], the “human MASP1 IC50” value was 0.72 nM. Besides, the “human MASP2 IC50” value in assay [2] turned out to be 40 nM.

B6: ((2,4-dioxoimidazolidin-1-yl)acetic acid)-IC+SRSLP-(Oic)-I-(Pen)+IPD-OH (peptide)
peptide: X14-ICSRSLP[Oic]I[Pen]IPD-OH
modifications: disulfide 2-10
SMILES: CC[C@H](C)[C@H](NC(=O)CN1CC(=O)NC1=O)C(=O)N[C@H]1CSSC(C)(C)[C@@H](C(=O)N[C@H](C(=O)N2CCC[C@H]2C(=O)N[C@@H](CC(=O)O)C(=O)O)[C@@H](C)CC)NC(=O)[C@H]([C@@H](C)CC)NC(=O)[C@@H]2C[C@@H]3CCCC[C@@H]3N2C(=O)[C@@H]2CCCN2C(=O)[C@H](CC(C)C)NC(=O)[C@H](CO)NC(=O)[C@H](CCCNC(=N)N)NC(=O)[C@H](CO)NC1=O
For B6, in assay [1], the “human MASP1 IC50” value was 17 nM. Moreover, in assay [2], the “human MASP2 IC50” value amounted to 45 nM.

B7: ((N-Me)G)-IC+SRS-((tBu)A)-P-((3S)-2-azaspiro[4.4]nonane-3-carboxylic acid)-I-(Pen)+IPD-OH (peptide)
peptide: [Sar]ICSRS[tBuAla]P[X15]I[Pen]IPD-OH
modifications: disulfide 3-11; N-terminus assumed
SMILES: CC[C@H](C)[C@H](NC(=O)CNC)C(=O)N[C@H]1CSSC(C)(C)[C@@H](C(=O)N[C@H](C(=O)N2CCC[C@H]2C(=O)N[C@@H](CC(=O)O)C(=O)O)[C@@H](C)CC)NC(=O)[C@H]([C@@H](C)CC)NC(=O)[C@@H]2CC3(CCCC3)CN2C(=O)[C@@H]2CCCN2C(=O)[C@H](CC(C)(C)C)NC(=O)[C@H](CO)NC(=O)[C@H](CCCNC(=N)N)NC(=O)[C@H](CO)NC1=O
In the case of B7, in assay [1], the “human MASP1 IC50” value came to 17.1 nM. In assay [2], the “human MASP2 IC50” value was found to be 261 nM.

B8: ((N-Me)G)-IC+SRSLP-(Oic)-I-(Pen)+IP-((R)-Pyrrolidine-3-carboxylic acid)-OH (peptide)
peptide: [Sar]ICSRSLP[Oic]I[Pen]IP[βPro(3R)]-OH
modifications: disulfide 3-11; N-terminus assumed
SMILES: CC[C@H](C)[C@H](NC(=O)CNC)C(=O)N[C@H]1CSSC(C)(C)[C@@H](C(=O)N[C@H](C(=O)N2CCC[C@H]2C(=O)N2CC[C@@H](C(=O)O)C2)[C@@H](C)CC)NC(=O)[C@H]([C@@H](C)CC)NC(=O)[C@@H]2C[C@@H]3CCCC[C@@H]3N2C(=O)[C@@H]2CCCN2C(=O)[C@H](CC(C)C)NC(=O)[C@H](CO)NC(=O)[C@H](CCCNC(=N)N)NC(=O)[C@H](CO)NC1=O
B8: the “human MASP1 IC50” value in assay [1] is 28 nM. Further, the “human MASP2 IC50” value in assay [2] turned out to be 166 nM.

B9: ((N-Me)G)-IC+SRSLP-(Oic)-I-(Pen)+IP-((R)-Pyrrolidine-3-acetic acid)-OH (peptide)
peptide: [Sar]ICSRSLP[Oic]I[Pen]IP[(R)‑Pyrrolidine‑3‑acetic acid]-OH
modifications: disulfide 3-11; N-terminus assumed
SMILES: CC[C@H](C)[C@H](NC(=O)CNC)C(=O)N[C@H]1CSSC(C)(C)[C@@H](C(=O)N[C@H](C(=O)N2CCC[C@H]2C(=O)N2CC[C@H](CC(=O)O)C2)[C@@H](C)CC)NC(=O)[C@H]([C@@H](C)CC)NC(=O)[C@@H]2C[C@@H]3CCCC[C@@H]3N2C(=O)[C@@H]2CCCN2C(=O)[C@H](CC(C)C)NC(=O)[C@H](CO)NC(=O)[C@H](CCCNC(=N)N)NC(=O)[C@H](CO)NC1=O
Take B9: the “human MASP1 IC50” value in assay [1] was determined as 6.78 nM. Besides, the “human MASP2 IC50” value in assay [2] was 116 nM.

B10: ((N-Me)G)-IC+SRSLP-(Oic)-I-(Pen)+IPDK-OH (peptide)
peptide: [Sar]ICSRSLP[Oic]I[Pen]IPDK-OH
modifications: disulfide 3-11; N-terminus assumed
SMILES: CC[C@H](C)[C@H](NC(=O)CNC)C(=O)N[C@H]1CSSC(C)(C)[C@@H](C(=O)N[C@H](C(=O)N2CCC[C@H]2C(=O)N[C@@H](CC(=O)O)C(=O)N[C@@H](CCCCN)C(=O)O)[C@@H](C)CC)NC(=O)[C@H]([C@@H](C)CC)NC(=O)[C@@H]2C[C@@H]3CCCC[C@@H]3N2C(=O)[C@@H]2CCCN2C(=O)[C@H](CC(C)C)NC(=O)[C@H](CO)NC(=O)[C@H](CCCNC(=N)N)NC(=O)[C@H](CO)NC1=O
Consider B10, for which, in assay [1], the “human MASP1 IC50” value was 3.8 nM. Besides, the “human MASP2 IC50” value in assay [2] is 260 nM.

B11: ((S)-Piperidine-3-carboxylic acid)-IC+SRSLP-(Oic)-I-(Pen)+I-OH (peptide)
peptide: [X11]ICSRSLP[Oic]I[Pen]I-OH
modifications: disulfide 3-11; N-terminus assumed
SMILES: CC[C@H](C)[C@H](NC(=O)[C@H]1NC(=O)[C@H]([C@@H](C)CC)NC(=O)[C@@H]2C[C@@H]3CCCC[C@@H]3N2C(=O)[C@@H]2CCCN2C(=O)[C@H](CC(C)C)NC(=O)[C@H](CO)NC(=O)[C@H](CCCNC(=N)N)NC(=O)[C@H](CO)NC(=O)[C@@H](NC(=O)[C@@H](NC(=O)[C@H]2CCCNC2)[C@@H](C)CC)CSSC1(C)C)C(=O)O
Take B11: the “human MASP1 IC50” value in assay [1] turned out to be 8.2 nM. In addition, the “human MASP2 IC50” value in assay [2] was 140 nM.

AICSRSLP[Oic]I[Pen]IP[βDap]-OH (disulfide 3-11; also: C-terminal Dap bonded through its side-chain amino group) [AIC+SRSLP-(Oic)-I-(Pen)+IP-(*Dap)-OH]: in assay [1], the “human MASP1 IC50” value was 5.1 nM. Besides, the “human MASP2 IC50” value in assay [2] came out at 210 nM.

B12: ((N-Me)G)-IC+SRSLP-(Oic)-I-(Pen)+IP-(PEG2(13 atoms))-OH (peptide)
peptide: [Sar]ICSRSLP[Oic]I[Pen]IP[PEG3]-OH
modifications: disulfide 3-11; N-terminus assumed
SMILES: CC[C@H](C)[C@H](NC(=O)CNC)C(=O)N[C@H]1CSSC(C)(C)[C@@H](C(=O)N[C@H](C(=O)N2CCC[C@H]2C(=O)NCCOCCOCCOCCC(=O)O)[C@@H](C)CC)NC(=O)[C@H]([C@@H](C)CC)NC(=O)[C@@H]2C[C@@H]3CCCC[C@@H]3N2C(=O)[C@@H]2CCCN2C(=O)[C@H](CC(C)C)NC(=O)[C@H](CO)NC(=O)[C@H](CCCNC(=N)N)NC(=O)[C@H](CO)NC1=O
B12: the “human MASP1 IC50” value in assay [1] stood at 4.5 nM. Besides, in assay [2], the “human MASP2 IC50” value was found to be 97 nM.

B13: ((R)-Piperidine-3-carboxylic acid)-IC+SRSLP-(Oic)-I-(Pen)+I-OH (peptide)
peptide: [Nip(3R)]ICSRSLP[Oic]I[Pen]I-OH
modifications: disulfide 3-11; N-terminus assumed
SMILES: CC[C@H](C)[C@H](NC(=O)[C@H]1NC(=O)[C@H]([C@@H](C)CC)NC(=O)[C@@H]2C[C@@H]3CCCC[C@@H]3N2C(=O)[C@@H]2CCCN2C(=O)[C@H](CC(C)C)NC(=O)[C@H](CO)NC(=O)[C@H](CCCNC(=N)N)NC(=O)[C@H](CO)NC(=O)[C@@H](NC(=O)[C@@H](NC(=O)[C@@H]2CCCNC2)[C@@H](C)CC)CSSC1(C)C)C(=O)O
B13: the “human MASP1 IC50” value in assay [1] was found to be 4.3 nM. Further, the “human MASP2 IC50” value in assay [2] was determined as 200 nM.
